What all share (details): both partners purified
Experiment [1] concerns the target Cdk2/cyclin A binary complex (human, UniProt P24941 1-298; P20248 173-432). The experiment can be described thus: single-molecule fluorescence anisotropy (smFA); BODIPY-labelled single-Cys p27, not phosphorylated, free or in complex with Cdk2/cyclin A, diluted to pM; 20 mM HEPES pH 7.5, 300 mM NaCl, 40 µM TROLOX; average anisotropy of free and complexed p27 compared.

In experiment [2] the target is T1, Cdk2/cyclin A binary complex (human, UniProt P24941 1-298; P20248 173-432). The experiment can be described thus: single-molecule fluorescence anisotropy (smFA); BODIPY-labelled single-cysteine p27 in complex with Cdk2/cyclin A, freely diffusing molecules at pM concentration; 20 mM HEPES pH 7.5, 300 mM NaCl, 40 µM TROLOX.
Experiment [3] deals with T1, Cdk2/cyclin A binary complex. The experiment in a line: ITC; 10 µM p27 or p27 Y to E variants injected into 1 µM Cdk2/cyclin A binary complex; 20 mM HEPES pH 7.5, 300 mM NaCl, 2 mM TCEP; experiments from 5 to 25 °C in intervals of 5 °C (temperature of the tabulated values not stated); single-site binding model.
Experiment [4] has the same target. The experiment can be described thus: FRET or BRET; single-molecule FRET (smMFD) within dual-labelled p27 in complex with Cdk2/cyclin A, freely diffusing molecules at pM concentration; 20 mM HEPES pH 7.5, 300 mM NaCl, 40 µM TROLOX.

Substitutions are numbered along the chain they refer to. Names may count otherwise.

B1: p27-C29 (full-length p27-Y89F with the single native Cys 29, labelled with BODIPY-FL) (natural protein)
chain: MSNVRVSNGSPSLERMDARQAEHPKPSACRNLFGPVDHEELTRDLEKHARDMEEASQRKWNFDFQNHKPLEGKYEWQEVEKGSLPEFYFRPPRPPKGASKVPAQESQDVSGSRPAAPLIGAPANSEDTHLVDPKTDPSDSQTGLAEQSAGIRKRPATDDSSTQNKRANRTEENVSDGSPNAGSVEQTPKKPGLRRRQT
modifications: BODIPY-FL on Cys 29
notes: p27Kip1 (p27), human, residues 1-198 (full length), Y89F; Cys 29 kept, the other three native Cys replaced; also called p27-29C; source: E. coli, purified (Ni-NTA, His-tag removed with thrombin, reverse-phase HPLC over C4); labelled with BODIPY-FL
On to B1, for which the binding result in experiment [1] was “binds”.

B2: BODIPY-labeled p27-C29 (natural protein)
chain: B1 chain
modifications: BODIPY-FL on the native cysteine at 29
notes: p27Kip1 (p27), human, p27-Y89F background with the single native Cys 29 kept; also called p27–29C; source: E. coli, purified; labelled with BODIPY-FL
For the molecule B2, in experiment [2], the binding result is reported as “binds”.

B3: p27-C93 (Cys-less full-length p27-Y89F with R93C, labelled with BODIPY-FL) (natural protein)
chain: B1 chain with C29A, R93C
modifications: BODIPY-FL on Cys 93
notes: p27Kip1 (p27), human, residues 1-198 (full length), Y89F, Cys-less background, Arg 93 to Cys; also called p27-93C; source: E. coli, purified (Ni-NTA, His-tag removed with thrombin, reverse-phase HPLC over C4); labelled with BODIPY-FL
On to B3, for which, in experiment [1], the binding result was “binds”.

B4: p27-C75 (Cys-less full-length p27-Y89F with E75C, labelled with BODIPY-FL) (natural protein)
chain: B1 chain with C29A, E75C
modifications: BODIPY-FL on Cys 75
notes: p27Kip1 (p27), human, residues 1-198 (full length), Y89F, Cys-less background, Glu 75 to Cys; also called p27-75C; source: E. coli, purified (Ni-NTA, His-tag removed with thrombin, reverse-phase HPLC over C4); labelled with BODIPY-FL
With B4, in experiment [1], the binding result is listed as “binds”.

B5: BODIPY-labeled pY88-p27-C93 (natural protein)
chain: B1 chain with C29A, R93C
modifications: phosphotyrosine at 88; BODIPY-FL on the cysteine at 93
notes: p27Kip1 (p27), human, in the Cys-less p27-Y89F background; source: E. coli, purified; labelled with BODIPY-FL; phosphorylated with ABL-KD
On to B5, for which the binding result in experiment [2] was “binds”.

B6: p27-C54 (Cys-less full-length p27-Y89F with E54C, labelled with BODIPY-FL) (natural protein)
chain: B1 chain with C29A, E54C
modifications: BODIPY-FL on Cys 54
notes: p27Kip1 (p27), human, residues 1-198 (full length), Y89F, Cys-less background, Glu 54 to Cys; also called p27-54C; source: E. coli, purified (Ni-NTA, His-tag removed with thrombin, reverse-phase HPLC over C4); labelled with BODIPY-FL
With B6, in experiment [1], the binding result is “binds”.

B7: Y74E/Y88E-p27 (natural protein)
chain: B1 chain with A49C, Y74E, Y88E, S99C, S148C
notes: p27Kip1 (p27), human, residues 1–198 (full length); also called Y88E/Y74E; dual Y phosphomimetic p27; source: E. coli, purified (Ni2+-NTA, His-tag removed with thrombin, reverse-phase HPLC over C4 resin)
Consider B7, for which, in experiment [3], the affinity, expressed as Kd, was 14 nM and the dH was -34.4 kcal/mol.

B8: p27-C29-54 (Alexa Fluor 488 / Alexa Fluor 647 labelled) (natural protein)
chain: B1 chain with E54C
modifications: Alexa Fluor 488 maleimide and Alexa Fluor 647 maleimide on the cysteines at 29 and 54
notes: p27Kip1 (p27), human, p27-Y89F background with the native Cys 29 kept; source: E. coli, purified; dye-labelled, dual-labelled species separated by ion-exchange chromatography
B8: in experiment [4], the binding result is “binds”.

B9: pY88-p27-C54-93 (Alexa Fluor 488 / Alexa Fluor 647 labelled) (natural protein)
chain: B1 chain with C29A, E54C, R93C
modifications: phosphotyrosine at 88; Alexa Fluor 488 maleimide and Alexa Fluor 647 maleimide on the cysteines at 54 and 93
notes: p27Kip1 (p27), human, in the Cys-less p27-Y89F background; source: E. coli, purified; dye-labelled; phosphorylated with ABL-KD
With B9, the binding result in experiment [4] is recorded as “binds”.

B10: p27-C40 (Cys-less full-length p27-Y89F with E40C, labelled with BODIPY-FL) (natural protein)
chain: B1 chain with C29A, E40C
modifications: BODIPY-FL on Cys 40
notes: p27Kip1 (p27), human, residues 1-198 (full length), Y89F, Cys-less background, Glu 40 to Cys; also called p27-40C; source: E. coli, purified (Ni-NTA, His-tag removed with thrombin, reverse-phase HPLC over C4); labelled with BODIPY-FL
With B10, in experiment [1], the binding result is “binds”.

B11: p27-C54-93 (Alexa Fluor 488 / Alexa Fluor 647 labelled) (natural protein)
chain: B1 chain with C29A, E54C, R93C
modifications: Alexa Fluor 488 maleimide and Alexa Fluor 647 maleimide on the cysteines at 54 and 93
notes: p27Kip1 (p27), human, in the Cys-less p27-Y89F background; also called p27-C54-C93; source: E. coli, purified; dye-labelled, dual-labelled species separated by ion-exchange chromatography
As for B11, in experiment [4], the binding result was “binds”.

B12: p27-C75-110 (Alexa Fluor 488 / Alexa Fluor 647 labelled) (natural protein)
chain: B1 chain with C29A, E75C, S110C
modifications: Alexa Fluor 488 maleimide and Alexa Fluor 647 maleimide on the cysteines at 75 and 110
notes: p27Kip1 (p27), human, in the Cys-less p27-Y89F background; source: E. coli, purified; dye-labelled, dual-labelled species separated by ion-exchange chromatography
For B12, the binding result in experiment [4] is listed as “binds”.

B13: BODIPY-labeled p27-C93 (natural protein)
chain: B1 chain with C29A, R93C
modifications: BODIPY-FL on the cysteine at 93
notes: p27Kip1 (p27), human, in the Cys-less p27-Y89F background; source: E. coli, purified; labelled with BODIPY-FL
As to B13, the binding result in experiment [2] is “binds”.

(Values after publication PMC6459857 (Nature Communications, 2019).)
